Measurements taken from PMC8313361.

These substances were tested against Recombinant rat SNX27 PDZ domain (residues 38-135) (rat) (UniProt Q8K4V4) (assay: ITC).

Substance	Kd [µM]
Phosphorylated GluN2A C-terminal peptide (phospho-Ser-1459)	14
GluN2A C-terminal peptide, S1459E phospho-mimetic mutant	25
GluN2A C-terminal peptide, S1459A phospho-deficient mutant	49
GluN2A C-terminal peptide, wild type	46
